T1: AGL15-GST (Arabidopsis thaliana, UniProt Q38847 1-268)
T1 sequence: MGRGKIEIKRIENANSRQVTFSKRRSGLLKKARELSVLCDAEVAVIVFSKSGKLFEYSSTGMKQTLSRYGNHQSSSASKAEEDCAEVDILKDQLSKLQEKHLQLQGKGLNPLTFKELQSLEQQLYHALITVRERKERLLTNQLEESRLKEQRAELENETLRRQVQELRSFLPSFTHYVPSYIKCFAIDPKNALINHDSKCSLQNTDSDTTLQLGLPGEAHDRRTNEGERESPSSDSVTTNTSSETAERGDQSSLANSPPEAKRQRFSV

T2: AGL15-His (Arabidopsis thaliana, UniProt Q38847 1-268)
T2 sequence (looked up): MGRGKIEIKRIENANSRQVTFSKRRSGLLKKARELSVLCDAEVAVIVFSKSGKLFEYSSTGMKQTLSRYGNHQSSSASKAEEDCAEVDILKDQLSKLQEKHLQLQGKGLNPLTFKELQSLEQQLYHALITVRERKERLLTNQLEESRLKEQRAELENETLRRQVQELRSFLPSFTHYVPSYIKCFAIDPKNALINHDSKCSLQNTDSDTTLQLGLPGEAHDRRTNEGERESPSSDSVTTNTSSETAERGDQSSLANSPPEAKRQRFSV

B1: miR156a CArG II (dsDNA)
DNA 1: ATATATCTTCCATAATTTTGCAAGTCTTTA
DNA 2: TAAAGACTTGCAAAATTATGGAAGATATAT
B2: miR156a NC (dsDNA)
DNA 1: TAAGAGAGATAAAGAAAGCGACAAGAGCCA
DNA 2: TGGCTCTTGTCGCTTTCTTTATCTCTCTTA
B3: miR156c CArG I (dsDNA)
DNA 1: AAAAAAATTGCTATTTTTTGAAAATGTTAC
DNA 2: GTAACATTTTCAAAAAATAGCAATTTTTTT
B4: miR156a CArG I (dsDNA)
DNA 1: TGGTGAAAAACAATTAATAGAAAATTAATT
DNA 2: AATTAATTTTCTATTAATTGTTTTTCACCA
B5: miR156c NC (dsDNA)
DNA 1: TTCAGACATCTGTCCCATTGCATGTAAGAG
DNA 2: CTCTTACATGCAATGGGACAGATGTCTGAA
B6: miR156c CArG II (dsDNA)
DNA 1: TGAATTAATTCTTAAAATTGTGAAATAATT
DNA 2: AATTATTTCACAATTTTAAGAATTAATTCA
B7: miR156a CArG III (dsDNA)
DNA 1: ATAATAATAATCTAATTAAAGGAGATGAGA
DNA 2: TCTCATCTCCTTTAATTAGATTATTATTAT
B8: GST-AGL18 (natural protein, Arabidopsis thaliana, UniProt Q9M2K8 1-256, looked up)
chain: MGRGRIEIKKIENINSRQVTFSKRRNGLIKKAKELSILCDAEVALIIFSSTGKIYDFSSVCMEQILSRYGYTTASTEHKQQREHQLLICASHGNEAVLRNDDSMKGELERLQLAIERLKGKELEGMSFPDLISLENQLNESLHSVKDQKTQILLNQIERSRIQEKKALEENQILRKQVEMLGRGSGPKVLNERPQDSSPEADPESSSSEEDENDNEEHHSDTSLQLGLSSTGYCTKRKKPKIELVCDNSGSQVASD
B9: miR156a CArG IV (dsDNA)
DNA 1: CAAGTTCATTGCCATTTTTAGGTCTCTCTA
DNA 2: TAGAGAGACCTAAAAATGGCAATGAACTTG
B10: miR156a CArG V (dsDNA)
DNA 1: CTTTTTTTTGCTTTTTATGGTTATGTTTTT
DNA 2: AAAAACATAACCATAAAAAGCAAAAAAAAG
B11: miR156c CArG III (dsDNA)
DNA 1: TTGTCGTTGCCGTTTATAGGTTATGAGATT
DNA 2: AATCTCATAACCTATAAACGGCAACGACAA

The values that follow come from paper PMC4363726 (Molecules and Cells, 2015).

For the first series, the target named is T1, AGL15-GST. The series can be described thus: EMSA. (In EMSA bound probe runs differently from free probe, usually more slowly.)
Consider B1, for which the binding result is “no binding”. For B2, the binding result is recorded as “no binding”. The same measure, in the same setting: to B3 belongs “no binding”.

Regarding B4, the binding result is reported as “no binding”. Same read-out and setting: to B5 belongs “no binding”. Turning to B6, the binding result is “no binding”.

In the case of B7, the binding result is given as “no binding”.

For the next series, the target named is T2, AGL15-His. The series is described as follows: pull-down.
Regarding B8, the binding result was “binds”.

For a further series, the target named is T1, AGL15-GST. The series is described as follows: competition.
For B9, the binding result is “binds”. On the same count and under the same terms, to B10 belongs “binds”; to B11, “binds”.
